Measurements: patent publication US12692524B2, “Sialyltransferases and their use in producing sialylated oligosaccharides” (Chr. Hansen A/S, priority 2017, dated 2026)

Experiments:
[1] = In vitro kinetics (Km, Vmax), acceptor substrate lactose; assay type: biochemical; settings: 30° C., pH7.5, protein extract
Description: (§1) To rank the best performing sialyltransferases, their Km values for donor and acceptor substrates were determined in vitro. Escherichia coli BL21(DE3) strain #287 was used for overproduction of the enzymes. Cells were incubated in 100 ml 2YT medium in shaking flasks supplemented with 100 μg m^−1 ampicillin at 30° C. until an OD600 of 0.3 was reached. Then, 0.3 mM IPTG was added and the incubation was continued for 12 to 16 hours. Cells were harvested by centrifugation and mechanically disrupted in a defined volume of 50 mM Tris-HCl pH7.5 using glass beads. The protein extract was kept on ice until the assay started. The in vitro assay was carried out in a total volume of 50 μl including 50 mM Tris-HCl pH7.5, 5 mM MgCl2 and varying concentrations of CMP-Neu5Ac (0.05-30 mM) as well as of lactose or LNT (0.1-50 mM). The assay started with the addition of 35 to 750 μg protein extract. After 1 to 10 minutes of incubation at 30° C., the assay was inactivated at 95° C. for 5 minutes. Product formation was determined by mass spectrometry. Data were evaluated using the enzyme kinetic module of SigmaPlot v12.5 to calculate Km and Vmax.
(§2) Their kinetic parameters for CMP-Neu5Ac and LNT as well as lactose are depicted in Table 6.

[2] = In vitro sialylation of LNT by protein extracts, LST-a/-b quantified by LC-MS/MS; assay type: biochemical; settings: for Relative efficacy of sialyltransferases regarding in-vitro production of sialyllacto-N-tetraoses: LST-b / Relative efficacy of sialyltransferases regarding in-vitro production of sialyllacto-N-tetraoses: LST-a: 5 mM LNT, 10 mM CMP-Neu5Ac, 16 hours, LC-MS/MS, relative quantity, n.d.: not detectable; for Ranking in the screening for sialylation of LNT: in words
Outline: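 E. coli BL21(DE3) crude extracts overexpressing sialyltransferases (IPTG 0.3 mM, 12–16 h at 30 °C) incubated 16 h with 5 mM LNT and 10 mM CMP-Neu5Ac in 50 mM Tris-HCl pH 7.5, 5 mM MgCl2. LST-a and LST-b measured by HILIC LC-MS/MS, MRM in ESI negative mode, against commercial standards.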

[3] = In vitro kinetics (Km, Vmax), donor substrate CMP-Neu5Ac; assay type: biochemical; settings: for Km / Vmax CMP-Neu5Ac: 30° C., pH7.5, protein extract
Description: as §1, §2

[4] = In vivo screening in E. coli #1363/#1730 with lactose as acceptor, sialyllactose identified by TLC; assay type: cell-based, Escherichia coli BL21(DE3); settings: for Production of sialyllactose in-vivo: 1.5 mM lactose, 72 to 96 hours, qualitative via TLC
Outline: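 E. coli BL21(DE3) #1363/#1730 expressing sialyltransferases were grown at 30 °C in mineral salts medium with 2% glucose and induced with 0.3 mM IPTG. After 1 h, 1.5 mM lactose was added, plus 1.5 mM sialic acid for #1730, and incubation ran 72–96 h. Cell lysates were analysed by silica TLC with thymol staining.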

[5] = In vitro kinetics (Km, Vmax), acceptor substrate LNT; assay type: biochemical; settings: 30° C., pH7.5, protein extract
Description: as §1, §2

Row | Molecule | Km [1] [mM] | Vmax Lactose [1] [µmol/min] | Relative efficacy of sialyltransferases regarding in-vitro production of sialyllacto-N-tetraoses: LST-b [2] | Ranking in the screening for sialylation of LNT [2] | Km [3] [mM] | Vmax CMP-Neu5Ac [3] [µmol/min] | Production of sialyllactose in-vivo [4] | Described activity confirmed in the lactose screening ([4]; in words) | Km [5] [mM] | Vmax LNT [5] [µmol/min] | Relative efficacy of sialyltransferases regarding in-vitro production of sialyllacto-N-tetraoses: LST-a [2] | Michaelis-Menten behaviour ([3]; kinetic parameters for CMP-Neu5Ac, LNT and lactose)
1 | SiaT6: sialyltransferase of Photobacterium sp. JT-ISH-224, acc. BAF92026, SEQ ID NO: 29 (protein, listed as Photobacterium sp.) MSEENTQSIIKNDINKTIIDEEYVNLEPINQSNISFTKHSWVQTCGTQQLLTEQNKESISLSVVAPRLDDDEKYCFDFNGVSNKGEKYITKVTLNVVAPSLEVYVDHASLPTLQQLMDIIKSEEENPTAQRYIAWGRIVPTDEQMKELNITSFALINNHTPADLVQEIVKQAQTKHRLNVKLSSNTAHSFDNLVPILKELNSFNNVTVTNIDLYDDGSAEYVNLYNWRDTLNKTDNLKIGKDYLEDVINGINEDTSNTGTSSVYNWQKLYPANYHFLRKDYLTLEPSLHELRDYIGDSLKQMQWDGFKKFNSKQQELFLSIVNFDKQKLQNEYNSSNLPNFVFTGTTVWAGNHEREYYAKQQINVINNAINESSPHYLGNSYDLFFKGHPGGGIINTLIMQNYPSMVDIPSKISFEVLMMTDMLPDAVAGIASSLYFTIPAEKIKFIVFTSTETITDRETALRSPLVQVMIKLGIVKEENVLFWADLPNCETGVCIAV | 5.6 | 0.20 | 300 | sialylate LNT most efficiently among the tested α-2,6-sialyltransferases | 2 | 0.16 | 6′-SL | could be confirmed | 5.5 | 0.13 | – | –
2 | SiaT20: sialyltransferase of Campylobacter coli, acc. YP_008473374, SEQ ID NO: 1 (protein, listed as Campylobacter coli) MQNVIIAGNGPSLQSINYQRLPKEYDIFRCNQFYFEDKYYLGKNIKAAFFNPYPFLQQYHTAKQLVFNNEYKIENIFCSTFNLPFIEKDNFINKFYDFFPDAKLGHKIIENLKEFYAYIKYNEIYLNKRITSGIYMCAIAIALGYKNIYLCGIDFYEGETIYPFKAMSKNIKKIFPWIKDFNPSNFHSKEYDIEILKLLESIYKVNIYALCDNSALANYFPLLVNTDNSFVLENKSDDCINDILLTNNTPGINFYKSQIQVNNTEILLLNFQNMISAKENEISNLNKILQDSYKTINTKENEISNLNKILQDSYKTINTKENEISNLNKILQDKDKLLIVKENLLNFKSRHGKAKFRIQNQLSYKLGQAMMVNSKSLLGYIRMPFVLSYIKDKHKQEQKIYQEKIKKDPSLTLPPLEDYPDYKEALKEKECLTYRLGQTLIKADQEWYKGGYVKMWFEIKKLKKEYKKK | – | – | – | best performing α-2,3-sialyltransferases for LST-a production | – | – | 3′-SL | – | – | – | 1.00 × 10^4 | does not follow a Michaelis-Menten kinetic
3 | SiaT8: sialyltransferase of Photobacterium sp. JT-ISH-224, acc. BAF92025, SEQ ID NO: 3 (protein, listed as Photobacterium sp.) MGCNSDSNHNNSDGNITKNKTIEVYVDRATLPTIQQMTQIINENSNNKKLISWSRYPINDEELLESINGSFFKNNSELIKSLDSMILTNDIKKVIINGNTLWAADVVNIIKSIEAFGKKTEIELNFYDDGSAEYVRLYDFSKLPESEQEYKISLSKDNILSSINGTQPFENVVENIYGFSQLYPTTYHMLRADIFETNLPLRSLKGVLSNNIKQMKWDYFKTFNSQQKDKFYNFTGFNPDEIMEQYKASPNKNFIFVGTNSGTATAEQQIDILTEAKNPNSPIITKSIQGFDLFFKGHPSATYNKQIIDAHNMIEIYNKIPFEALIMTDALPDAVGGMGSSVFFSLPNTVENKFIFYKSDTDIENNALIQVMIELNIVNRNDVKLISDLQ | 4.3 | 0.37 | – | best performing α-2,3-sialyltransferases for LST-a production | 4 | 0.35 | – | – | 4.2 | 0.32 | 4.00 × 10^3 | –
4 | SiaT18: sialyltransferase of Photobacterium leiognathi JT-SHIZ-119, acc. AB500947, SEQ ID NO: 28 (protein, listed as Photobacterium leiognathi) MCNDNQNTVDVVVSTVNDNVIENNTYQVKPIDTPTTFDSYSWIQTCGTPILKDDEKYSLSFDFVAPELDQDEKFCFEFTGDVDGKRYVTQTNLTVVAPTLEVYVDHASLPSLQQLMKIIQQKNEYSQNERFISWGRIGLTEDNAEKLNAHIYPLAGNNTSQELVDAVIDYADSKNRLNLELNTNTAHSFPNLAPILRIISSKSNILISNINLYDDGSAEYVNLYNWKDTEDKSVKLSDSFLVLKDYFNGISSEKPSGIYGRYNWHQLYNTSYYFLRKDYLTVEPQLHDLREYLGGSLKQMSWDGFSQLSKGDKELFLNIVGFDQEKLQQEYQQSELPNFVFTGTTTWAGGETKEYYAQQQVNVVNNAINETSPYYLGREHDLFFKGHPRGGIINDIILGSFNNMIDIPAKVSFEVLMMTGMLPDTVGGIASSLYFSIPAEKVSFIVFTSSDTITDREDALKSPLVQVMMTLGIVKEKDVLFWSDLPDCSSGVCIAQY | 7.6 | 0.21 | 303 | sialylate LNT most efficiently among the tested α-2,6-sialyltransferases | 2.8 | 0.21 | 6′-SL | – | 5.2 | 0.14 | – | –
5 | SiaT73: sialyltransferase of Haemophilus somnus 2336, acc. ACA31170, SEQ ID NO: 20 (protein, listed as Haemophilus somnus) MKYNIKIKAIVIVSSLRMLLIFLMLNKYHLDEVLFVFNEGFELHKKYKIKHYVAIKKKITKFWRLYYKLYFYRFKIDRIPVYGADHLGWTDYFLKYFDFYLIEDGIANFSPKRYEINLTRNIPVFGFHKTVKKIYLTSLENVPSDIRHKVELISLEHLWKTRTAQEQHNILDFFAFNLDSLISLKMKKYILFTQCLSEDRVISEQEKIAIYQHIIKNYDERLLVIKPHPRETTDYQKYFENVFVYQDVVPSELFELLDVNFERVITLFSTAVFKYDRNIVDFYGTRIHDKIYQWFGDIKF | – | – | – | – | – | – | 3′-SL | – | – | – | 15 | –
